No end group written: not given here. TAMRA = carboxytetramethylrhodamine

In assay [1] the target is T1, ^15N,^13C-labeled Sin3A PAH1 (mouse, UniProt Q60520 119-195).
T1 sequence (looked up): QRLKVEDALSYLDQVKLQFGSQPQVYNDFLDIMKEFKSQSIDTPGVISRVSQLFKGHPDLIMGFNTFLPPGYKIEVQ
As to the kind of experiment: NMR titration.

For a further assay, the target named is T2, GST-tagged Sin3A PAH1 (mouse, UniProt Q60520 119-195).
T2 sequence (looked up): T1 sequence (looked up)
As to the kind of experiment: fluorescence polarisation. On the technique in general: Polarisation of emitted light reports the rotation of a fluorescent probe.

For EYDNYDELVAKSLLNLGKIAED (peptide, UniProt Q9UL68 193-214, looked up) [Myt1L^193−214 SID peptide (released from MBP)], in assay [1], the binding result is reported as “binds”. Regarding {TAMRA}-EYDNYDELVAKSLLNLGKIAED (peptide, UniProt Q9UL68 193-214, looked up) [TAMRA-conjugated Myt1L^193−214 SID peptide], binding with GST-tagged Sin3A PAH1 was put at a Kd of 6 ± 0.9 µM.

In general, Kd refers to a measure of binding affinity in units of concentration. Low values mean higher affinity, high ones lower affinity.

These data come from PMC8224932 (FEBS letters, 2020).
